T1: human PVRIG-his (AcroBiosystems, Cat NO. PVG-H52H4) (human, UniProt Q6DKI7 41-171, limits assumed)
T1 construct: also called human PVRIG protein
T1 sequence (looked up): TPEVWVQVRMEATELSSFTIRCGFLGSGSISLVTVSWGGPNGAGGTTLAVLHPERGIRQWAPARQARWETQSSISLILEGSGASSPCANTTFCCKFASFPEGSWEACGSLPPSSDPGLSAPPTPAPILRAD

T2: cynomolgus monkey PVRIG (Novoprotein, Cat NO. C09B) (cynomolgus monkey, UniProt A0A2K5WVV8 41-171)
T2 construct: also called cynomolgus monkey PVRIG protein
T2 sequence: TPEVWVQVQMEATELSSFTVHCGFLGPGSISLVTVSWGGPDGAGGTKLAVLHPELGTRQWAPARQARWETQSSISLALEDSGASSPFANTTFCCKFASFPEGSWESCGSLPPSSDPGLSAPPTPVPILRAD

T3: cynomolgus monkey PVRIG on FlpinCHO-cyno PVRIG cells (cynomolgus monkey, UniProt A0A2K5WVV8 41-322)
T3 construct: whole, on cells
T3 sequence: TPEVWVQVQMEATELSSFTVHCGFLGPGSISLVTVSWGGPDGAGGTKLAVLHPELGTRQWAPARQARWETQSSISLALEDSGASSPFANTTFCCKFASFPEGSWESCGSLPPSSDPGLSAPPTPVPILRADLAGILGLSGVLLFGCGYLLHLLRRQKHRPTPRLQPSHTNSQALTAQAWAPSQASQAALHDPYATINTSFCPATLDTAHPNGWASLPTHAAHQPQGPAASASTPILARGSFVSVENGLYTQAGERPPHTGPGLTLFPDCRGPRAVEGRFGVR


Assays:
[1] = biological target: T1, human PVRIG-his (AcroBiosystems, Cat …); experiment: ELISA, antigen coated
[2] = biological target: T2, cynomolgus monkey PVRIG (Novoprotein, …); experiment: ELISA, antigen coated
[3] = biological target: T3, cynomolgus monkey PVRIG on …; experiment: FACS, FlpinCHO-cyno PVRIG cells
Protocol: The antibodies were diluted from the highest concentration of 46 nM (two-fold concentration) with staining buffer by 3.3-fold serial dilution. The diluted antibodies were added to the well containing 50 μL of cell suspension. The plate was placed on a microplate shaker at 400 rpm for 1 minute to fully mix the antibodies and cells, and then incubated at 4° C. for 30 minutes. After the incubation, the cells were washed twice with staining buffer (200 μL per well) and centrifuged at 350×g for 5 minutes to discard the supernatant. The PE goat anti-human IgG Fc antibody (ebioscience, 12-4998-82) was diluted 250 times with staining buffer, added into the washed wells (100 μL per well), mixed well, and stained at 4° C. for 30 minutes. After staining, the cells were washed twice with staining buffer, finally resuspended with 200 μL staining buffer and analyzed by flow cytometry (BD, Canto II). The stronger the signal, the stronger the ability of the antibodies binds to PVRIG. An antibody binding curve was drawn with concentration of antibodies as the abscissa and the corresponding Mean Fluorescence Intensity (MFI) as the ordinate. The AUC value of the curve was calculated by using a Four Parameter Logistic Fit (GraphPadPrism9). The stronger the AUC value, the stronger the ability of the antibodies binds to FlpinCHO-PVRIG and FlpinCHO-cyno PVRIG. […] The binding activity of the antibodies was normalized to the positive control COM701-hIgG1 and SRF813-hIgG1. The higher the percentage value, the stronger the binding ability of the antibodies.
The methods refer to Example 19. The stronger the AUC value, the stronger the ability of the humanized antibodies binds to FlpinCHO-human/cyno PVRIG.

[4] = biological target: T1, human PVRIG-his (AcroBiosystems, Cat …); experiment: competition ELISA, PVRIG-His coated, competitor human PVRL2-mFc; parameters: AUC: unit not given here

% relative activity parental antibody/tested antibody [1]	EC50 [1]	% relative activity parental antibody/tested antibody [2]	EC50 [2]	AUC % to COM701-hIgG1 [3]	AUC % to SRF813-hIgG1 [3]	AUC % to parental Ab [3]	% relative activity (AUC) parental antibody/test antibody [4]	% relative activity (IC50) parental antibody/test antibody [4]	AUC [4]	IC50 [4]	Binder
105%	0.0871 nM	95.1%	0.13 nM	45.2%	55.5%	96%	82.6%	77.5%	2.42	1 nM	PVRIG-A50-H1 (Fc fusion, humanized variant of PVRIG-A50; also called A50.VH1; not shown: constant part not restated for the humanized forms; parents are VHH-hinge-CH2-CH3 of human IgG1; detected by anti-human) EVQLVESGGGLVQPGGSLRLSCAASGFTFSYYDMSWVRQAPGKGLEWVSTINSNGGRTSYVDSVKGRFTISRDNSKNTLYLQMNSLRAEDTAVYYCVEGDPHNFGLENLSLRDFGSWGQGTMVTVSS
118%	0.0774 nM	111%	0.111 nM	48.6%	59.7%	103%	83.2%	75%	2.4	1.03 nM	PVRIG-A50-H1d (Fc fusion, humanized variant of PVRIG-A50; also called A50.VH1d; not shown: constant part not restated for the humanized forms; parents are VHH-hinge-CH2-CH3 of human IgG1; detected by anti-human) EVQLVESGGGLVQPGGSLRLSCAASGFTFSYYDMSWVRQAPGKGLEWVSTINSNGGRTSYVDSVKGRFTISRDNSKNTLYLQMNSLRAEDTAVYYCVEGDPHNFGLESLSLRDFGSWGQGTMVTVSS
95.8%	0.0522 nM	37.1%	0.0729 nM	21.3%	26%	34.2%	112%	120%	1.42	0.462 nM	PVRIG-A118-H4 (Fc fusion, humanized variant of PVRIG-A118; also called A118.VH4; not shown: constant part not restated for the humanized forms; parents are VHH-hinge-CH2-CH3 of human IgG1; detected by anti-human) EVQLVESGGGLVQPGGSLRLSCAASETYFDLYVMGWYRQAPGKDRELVATITYTGSIKYVDSVKGRFTISRGDAKNSLSLQMNSLRAEDTAVYYCNADPSGLGRKVYWGQGTMVTVSS
100%	0.05 nM	34%	0.0794 nM	21%	25.6%	33.6%	106%	144%	1.49	0.386 nM	PVRIG-A118-H3 (Fc fusion, humanized variant of PVRIG-A118; also called A118.VH3; not shown: constant part not restated for the humanized forms; parents are VHH-hinge-CH2-CH3 of human IgG1; detected by anti-human) EVQLVESGGGLVQPGGSLRLSCAASETYFDLYVMGWYRQAPGKDRELVATITYTGSIKYVDSVKGRFTISRGDAKNSLYLQMNSLRAEDTAVYYCNADPSGLGRKVYWGQGTMVTVSS
99.9%	0.0501 nM	33.1%	0.0817 nM	19.7%	24%	31.6%	114%	129%	1.38	0.43 nM	PVRIG-A118-H7 (Fc fusion, humanized variant of PVRIG-A118; also called A118.VH7; not shown: constant part not restated for the humanized forms; parents are VHH-hinge-CH2-CH3 of human IgG1; detected by anti-human) EVQLVESGGGLVQPGGSLRLSCAASETYFDLYVMGWYRQAPGKDRELVATITYTGSIKYVDSVKGRFTISRGDAKNSLYLQMNSLRAEDTAVYFCNADPSGLGRKVYWGQGTMVTVSS
90.8%	0.0551 nM	48.4%	0.0559 nM	19.9%	24.2%	31.8%	108%	132%	1.47	0.422 nM	PVRIG-A118-H6 (Fc fusion, humanized variant of PVRIG-A118; also called A118.VH6; not shown: constant part not restated for the humanized forms; parents are VHH-hinge-CH2-CH3 of human IgG1; detected by anti-human) EVQLVESGGGLVQPGGSLRLSCAASETYFDLYVMGWYRQAPGKDRELVATITYTGSIKIVDSVKGRFTISRGDAKNSLYLQMNSLRAEDTAVYYCNADPSGLGRKVYWGQGTMVTVSS
104%	0.0481 nM	40.2%	0.0673 nM	21.8%	26.6%	35%	114%	146%	1.39	0.381 nM	PVRIG-A118-H5 (Fc fusion, humanized variant of PVRIG-A118; also called A118.VH5; not shown: constant part not restated for the humanized forms; parents are VHH-hinge-CH2-CH3 of human IgG1; detected by anti-human) EVQLVESGGGLVQPGGSLRLSCAASETYFDLYVMGWYRQAPGKDRELVATITYTGSIKYVDSVKGRFTISRGDAKNSVYLQMNSLRAEDTAVYYCNADPSGLGRKVYWGQGTMVTVSS
110%	0.0456 nM	4.62%	0.585 nM	11.5%	14.1%	18.5%	121%	157%	1.31	0.355 nM	PVRIG-A118-H1 (Fc fusion, humanized variant of PVRIG-A118; also called A118.VH1; not shown: constant part not restated for the humanized forms; parents are VHH-hinge-CH2-CH3 of human IgG1; detected by anti-human) EVQLVESGGGLVQPGGSLRLSCAASETYFDLYVMGWYRQAPGKDRELVATITYTGSIYYVDSVKGRFTISRDNAKNSLYLQMNSLRAEDTAVYYCNADPSGLGRKVYWGQGTMVTVSS
102%	0.0491 nM	4.55%	0.594 nM	14.6%	17.8%	23.4%	117%	156%	1.35	0.357 nM	PVRIG-A118-H2 (Fc fusion, humanized variant of PVRIG-A118; also called A118.VH2; not shown: constant part not restated for the humanized forms; parents are VHH-hinge-CH2-CH3 of human IgG1; detected by anti-human) EVQLVESGGGLVQPGGSLRLSCAASETYFDLYVMGWYRQAPGKDRELVATITYTGSIKYVDSVKGRFTISRDNAKNSLYLQMNSLRAEDTAVYYCNADPSGLGRKVYWGQGTMVTVSS
140%	0.0521 nM	89.4%	0.0361 nM	80.3%	99.6%	91.8%	109%	107%	2.32	0.686 nM	PVRIG-A105-H4 (Fc fusion, humanized variant of PVRIG-A105; also called A105.VH4; not shown: constant part not restated for the humanized forms; parents are VHH-hinge-CH2-CH3 of human IgG1; detected by anti-human) EVQLVESGGGLVQPGGSLRLSCAASGRTFDRHTMTWFRQAPGKEREFVATASRIPGDTYYSHSVKGRFTISRDNAKNSLYLQMNSLRAEDTAVYYCAATSAYCSEVDCYEKGSWYDNWGQGTMVTVSS

Source: patent US20240343803A1 (SHANDONG SIMCERE BIOPHARMACEUTICAL, published 2024)
